Data on 18 sequences can be found in the Immune Epitope Database (IEDB).

Some results are limits rather than exact numbers.

One assay addresses HLA-A*31:01. As to the kind of experiment: IEDB peptide-MHC binding, purified MHC/competitive/radioactivity; filed as Kd, often an IC50 or EC50 that approximates it; ≥ and ≤ were set here for values at or beyond the usual limits of such assays. The settings on record: source organism: Dengue virus 2 Jamaica/1409/1983.
Assay [1] concerns the target HLA-B*57:01. Described as above.
For a further assay, the target named is HLA-B*58:01. The description is as above.
The target of the next assay is HLA-B*48:01. Nature of the assay: IEDB peptide-MHC binding, purified MHC/direct/fluorescence; filed as Kd, often an IC50 or EC50 that approximates it; ≥ and ≤ were set here for values at or beyond the usual limits of such assays.
The next assay has as its target HLA-B*18:01. The description is as above.
Assay [2] concerns the target HLA-A*02:01. As to the kind of experiment: IEDB peptide-MHC binding, purified MHC/competitive/radioactivity; filed as Kd, often an IC50 or EC50 that approximates it; ≥ and ≤ were set here for values at or beyond the usual limits of such assays.
In another assay the target is HLA-A*02:06. Described as above.
In the next assay the target is HLA-A*02:17. Described as above.
Assay [3] deals with HLA-A*02:01. Nature of the assay: IEDB peptide-MHC binding, purified MHC/competitive/fluorescence; filed as Kd, often an IC50 or EC50 that approximates it; ≥ and ≤ were set here for values at or beyond the usual limits of such assays. As to conditions: source organism: human gammaherpesvirus 4.
Assay [4] addresses HLA-A*02:03. Described as above. As to conditions: source organism: human gammaherpesvirus 4.
Assay [5] concerns the target HLA-A*02:03. Nature of the assay: IEDB peptide-MHC binding, purified MHC/competitive/radioactivity; filed as Kd, often an IC50 or EC50 that approximates it; ≥ and ≤ were set here for values at or beyond the usual limits of such assays.
The next assay addresses HLA-A*68:02. Described as above. As to conditions: source organism: Dengue virus 4 Philippines/H241/1956.
Assay [6] concerns the target HLA-B*15:01. The description is as above. The settings on record: source organism: Dengue virus 2 Jamaica/1409/1983.
For the next assay, the target named is HLA-A*01:01. Nature of the assay: IEDB peptide-MHC binding, purified MHC/direct/fluorescence; filed as Kd, often an IC50 or EC50 that approximates it; ≥ and ≤ were set here for values at or beyond the usual limits of such assays. The settings on record: source organism: Homo sapiens.
Assay [7] has as its target HLA-A*69:01. As to the kind of experiment: IEDB peptide-MHC binding, purified MHC/competitive/fluorescence; filed as Kd, often an IC50 or EC50 that approximates it; ≥ and ≤ were set here for values at or beyond the usual limits of such assays. The settings on record: source organism: Homo sapiens.
The target of assay [8] is HLA-B*15:01. Described as above. The settings on record: source organism: Homo sapiens.
Another assay concerns the target HLA-B*27:03. Described as above. The settings on record: source organism: Homo sapiens.
The target of a further assay is HLA-B*39:01. Described as above. As to conditions: source organism: Homo sapiens.
In the next assay the target is HLA-B*46:01. The assay is described as above. The settings on record: source organism: Homo sapiens.
A further assay deals with HLA-B*51:01. The assay is described as above. As to conditions: source organism: Homo sapiens.
Assay [9] has as its target HLA-B*57:01. The description is as above. As to conditions: source organism: Homo sapiens.
For assay [10], the target named is HLA-A*69:01. Nature of the assay: IEDB peptide-MHC binding, purified MHC/direct/fluorescence; filed as Kd, often an IC50 or EC50 that approximates it; ≥ and ≤ were set here for values at or beyond the usual limits of such assays. The settings on record: source organism: dengue virus type 4.
Setting [11] is: source organism: Dengue virus 2 Jamaica/1409/1983.
Where [12] appears, read: source organism: Yellow fever virus.
The mark [13] stands for this setting: source organism: Dengue virus 4 Philippines/H241/1956.
[14] abbreviates: source organism: Dengue virus 4 Dominica/814669/1981.
Where [15] appears, read: source organism: Dengue virus 1 Brazil/97-11/1997.
[16] abbreviates: source organism: Dengue virus 1 Nauru/West Pac/1974.
The mark [17] stands for this setting: source organism: Dengue virus 1 Singapore/S275/1990.
Where [18] appears, read: source organism: Dengue virus 3 Martinique/1243/1999.

On to HSSAAQRRGR, for which the Kd (commonly the constant that tells how readily two partners part at equilibrium) worked out at 24.1 nM in the assay with HLA-A*31:01, 71.8 nM with HLA-B*57:01 [1] (setting [11]) and 11300 nM in the assay with HLA-B*58:01 (setting [11]).

YRNALSMMP: the equilibrium dissociation constant (Kd) with HLA-B*48:01 (setting [12]) was ≥ 20000 nM.

On to VQGFIFFFL, for which the Kd with HLA-B*18:01 (setting [12]) is ≥ 5000 nM.

As to GLLCLTLFV, the Kd was found to be 2.44 nM with HLA-A*02:01 [2] (setting [13]), 16.4 nM in the assay with HLA-A*02:06 (setting [13]) and 8.47 nM with HLA-A*02:17 (setting [13]).

With SVRDRLARL, the Kd was found to be 407 nM with HLA-A*02:01 [3] and 12.3 nM with HLA-A*02:03 [4].

Take ATGPILTLW: the Kd with HLA-B*57:01 [1] (setting [14]) was determined as 8.07 nM; with HLA-B*58:01 (setting [14]), 13.1 nM.

In the case of TIMAVLFVV, the equilibrium dissociation constant (Kd) came out at 92.6 nM in the assay with HLA-A*02:01 [2] (setting [13]); 46.7 nM with HLA-A*02:03 [5] (setting [13]); 127 nM with HLA-A*02:06 (setting [13]); 789 nM with HLA-A*02:17 (setting [13]); 43.4 nM in the assay with HLA-A*68:02.

For GLNTFTNMEV, the Kd in the assay with HLA-A*02:01 [2] (setting [13]) came out at 3.82 nM; with HLA-A*02:03 [5] (setting [15]) it was 15.3 nM; with HLA-A*02:17 (setting [13]), 421 nM.

SSSNPTIEEG: in the assay with HLA-B*58:01 (setting [13]), the Kd worked out at 5990 nM.

Consider YQLAVTIMAI, for which the Kd with HLA-A*02:01 [2] (setting [11]) was 32.3 nM; in the assay with HLA-A*02:03 [5] (setting [11]), 11.2 nM; in the assay with HLA-A*02:06 (setting [11]) it was 11.3 nM; with HLA-A*02:17 (setting [11]) it was 7840 nM; with HLA-B*15:01 [6], 15.8 nM.

In the case of SLLFKTSAGV, the Kd in the assay with HLA-A*02:01 [2] (setting [16]) is 21.6 nM; in the assay with HLA-A*02:03 [5] (setting [15]), 287 nM; in the assay with HLA-A*02:06 (setting [15]), 35.8 nM; with HLA-A*02:17 (setting [16]), 820 nM.

For the sequence TMKEKSWLV, the Kd in the assay with HLA-A*02:01 [2] (setting [17]) is 54.7 nM; in the assay with HLA-A*02:03 [5] (setting [15]), 94.6 nM; with HLA-A*02:17 (setting [17]), 40.3 nM.

With NTAINFFLY, the Kd with HLA-A*01:01 is 3.6 nM; in the assay with HLA-A*69:01 [7], ≥ 20000 nM; in the assay with HLA-B*15:01 [8], ≥ 20000 nM; with HLA-B*27:03, ≥ 20000 nM; with HLA-B*39:01 it was ≥ 20000 nM; in the assay with HLA-B*46:01, ≥ 20000 nM. For the same sequence, the Kd with HLA-B*51:01 and in the assay with HLA-B*57:01 [9] was ≥ 20000 nM in each case.

For the sequence TASLVMLLVH, the Kd in the assay with HLA-B*57:01 [1] (setting [14]) is 7390 nM; with HLA-B*58:01 (setting [14]), 1350 nM.

As to RRYGGGLVR, the Kd with HLA-B*48:01 (source organism: West Nile virus) was ≥ 20000 nM.

As for SESLPIWGI, the Kd in the assay with HLA-B*18:01 (source organism: Cryptosporidium parvum Iowa II) amounted to 13700 nM.

In the case of ASSLLRNDVP, the dissociation constant Kd was 11600 nM with HLA-B*57:01 [1] (setting [18]) and 745 nM in the assay with HLA-B*58:01 (setting [18]).

Turning to IMAVGLVSL, the Kd in the assay with HLA-A*69:01 [10] is ≥ 20000 nM; in the assay with HLA-A*02:03 [5] (setting [13]) it was 0.16 nM; in the assay with HLA-A*02:17 (setting [13]), 802 nM.
